Data taken from publication doi:10.1101/2025.10.15.682645 (bioRxiv, 2025).
Positions count from the first letter of the chain named.

T1: GFP-GST-Rad54 S816DS817D (Saccharomyces cerevisiae, UniProt P32863 1-898, S816D | S817D)
T1 sequence (looked up): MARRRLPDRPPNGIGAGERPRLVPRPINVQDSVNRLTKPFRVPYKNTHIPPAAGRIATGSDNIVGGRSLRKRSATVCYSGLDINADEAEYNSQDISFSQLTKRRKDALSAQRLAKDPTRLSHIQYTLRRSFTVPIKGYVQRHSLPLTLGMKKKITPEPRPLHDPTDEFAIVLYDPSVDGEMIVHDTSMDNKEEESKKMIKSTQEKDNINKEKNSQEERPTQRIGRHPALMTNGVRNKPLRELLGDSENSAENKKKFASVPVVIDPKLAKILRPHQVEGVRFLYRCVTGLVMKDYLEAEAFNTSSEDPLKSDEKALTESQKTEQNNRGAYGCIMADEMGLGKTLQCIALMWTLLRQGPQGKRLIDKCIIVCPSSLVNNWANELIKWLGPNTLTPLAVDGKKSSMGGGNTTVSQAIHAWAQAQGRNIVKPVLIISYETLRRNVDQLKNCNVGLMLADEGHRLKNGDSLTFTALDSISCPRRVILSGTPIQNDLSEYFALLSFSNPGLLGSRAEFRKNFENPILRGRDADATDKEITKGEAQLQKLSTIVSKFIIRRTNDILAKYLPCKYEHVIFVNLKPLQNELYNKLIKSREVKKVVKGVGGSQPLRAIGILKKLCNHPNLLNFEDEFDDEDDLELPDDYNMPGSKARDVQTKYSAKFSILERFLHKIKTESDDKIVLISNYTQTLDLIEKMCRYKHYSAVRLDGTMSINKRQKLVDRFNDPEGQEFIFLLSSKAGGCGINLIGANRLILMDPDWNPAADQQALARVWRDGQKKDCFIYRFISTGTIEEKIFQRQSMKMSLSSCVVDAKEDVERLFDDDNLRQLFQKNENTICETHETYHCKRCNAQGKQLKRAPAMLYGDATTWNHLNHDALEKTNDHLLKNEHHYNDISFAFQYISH

B1: GFP-GST-Rad54 (enzyme, Saccharomyces cerevisiae, UniProt P32863 1-898, looked up)
chain: T1 sequence (looked up) with D816S, D817S
B2: GFP-GST-Rad54 S816AS817A (enzyme, Saccharomyces cerevisiae, UniProt P32863 1-898, looked up)
chain: T1 sequence (looked up) with D816A, D817A
B3: Rad51 (natural protein, UniProt P25454 1-400, looked up)
chain: MSQVQEQHISESQLQYGNGSLMSTVPADLSQSVVDGNGNGSSEDIEATNGSGDGGGLQEQAEAQGEMEDEAYDEAALGSFVPIEKLQVNGITMADVKKLRESGLHTAEAVAYAPRKDLLEIKGISEAKADKLLNEAARLVPMGFVTAADFHMRRSELICLTTGSKNLDTLLGGGVETGSITELFGEFRTGKSQLCHTLAVTCQIPLDIGGGEGKCLYIDTEGTFRPVRLVSIAQRFGLDPDDALNNVAYARAYNADHQLRLLDAAAQMMSESRFSLIVVDSVMALYRTDFSGRGELSARQMHLAKFMRALQRLADQFGVAVVVTNQVVAQVDGGMAFNPDPKKPIGGNIMAHSSTTRLGFKKGKGCQRLCKVVDSPCLPEAECVFAIYEDGVGDPREEDE

Legend:
Assay in all cases: single-molecule DNA curtains
Rad51 = molecular target: B3
GFP-GST-Rad54 = molecular target: B1
GFP-GST-Rad54 S816AS817A = molecular target: B2
GFP-GST-Rad54 S816DS817D = molecular target: T1, GFP-GST-Rad54 S816DS817D

fold change of Rad54 molecules per PSC, flow off against constant flow (Rad51) [fold] | binding result (GFP-GST-Rad54) | binding result (GFP-GST-Rad54 S816AS817A) | binding result (GFP-GST-Rad54 S816DS817D) | Binder
2 | – | – | – | B1
2 | – | – | – | B2
– | binds | binds | binds | B3
